Data taken from patent publication US20240116985A1 (published 2024).
Each block holds one binder with its values, some of them ahead of it. Starred links: 1 amine or outer side, 2 acyl side, 3 side chain; linkers in the order of their positions; H or OH if unused. Positions of bridges follow the written chain, without caps; N, C: chain ends. Non-standard residues stand in square brackets, D forms with d. Groups on a side chain read outwards from the residue. Primed or numbered codes have the meaning given here. No end group written: not given here. *: point of attachment. PyrS2″ = (S)-3-amino-1-((pent-4-en-1-yloxy)carbonyl)pyrrolidine-3-carboxylic acid (stapling residue), C=CCCCOC(=O)N1CC[C@@](N[*:1])(C(=O)[*:2])C1; B5(4) = 2,2-bis(4-pentenyl)glycine = 2-amino-2-(pent-4-en-1-yl)hept-6-enoic acid (stitching residue), C=CCCCC(CCCC=C)(N[*:1])C(=O)[*:2]; (CH2NMe2)4SEF = (S)-2-amino-3-(4-(3-(dimethylamino)prop-1-yn-1-yl)phenyl)propanoic acid, CN(C)CC#Cc1ccc(C[C@H](N[*:1])C(=O)[*:2])cc1; PyrS2 = (S)-3-amino-1-((pent-4-en-1-yloxy)carbonyl)pyrrolidine-3-carboxylic acid, C=CCCCOC(=O)N1CC[C@@](N[*:1])(C(=O)[*:2])C1; Lithocholoyl = C[C@H](CCC(=O)*)[C@H]1CC[C@H]2[C@@H]3CC[C@@H]4C[C@H](O)CC[C@]4(C)[C@H]3CC[C@]12C; B5(3) = 2,2-bis(4-pentenyl)glycine (stitching residue), C=CCCCC(CCCC=C)(N[*:1])C(=O)[*:2]; Me3AdamantC = 3,5,7-trimethyladamantane-1-carbonyl, CC12CC3(C)CC(C)(C1)CC(C(=O)*)(C2)C3; Phe(3-CF3) = N[C@@H](Cc1cccc(C(F)(F)F)c1)C(=O)O; Phe(4-CF3) = N[C@@H](Cc1ccc(C(F)(F)F)cc1)C(=O)O; Phe(2-CF3) = N[C@@H](Cc1ccccc1C(F)(F)F)C(=O)O; Phe(2-Cl) = N[C@@H](Cc1ccccc1Cl)C(=O)O; Ala(cPent) = N[C@@H](CC1CCCC1)C(=O)O; Bta = N[C@@H](Cc1csc2ccccc12)C(=O)O; αAllylPro = C=CC[C@@]1(C(=O)O)CCCN1; tBuAla = CC(C)(C)C[C@H](N)C(=O)O; 3Thi = N[C@@H](Cc1ccsc1)C(=O)O; S8 = C=CCCCCCC[C@](C)(N)C(=O)O; Thr(ol) = C[C@@H](O)[C@H](N)CO; Phe(ol) = N[C@H](CO)Cc1ccccc1; PEG2′ = not defined here

Key:
Test in all cases: cell-based or functional assay
[1] = target: T1, B-cat-Halo (beta-catenin HaloTag NanoBRET construct expressed in HEK293 cells) (UniProt P35222 2-781)
T1 sequence (looked up): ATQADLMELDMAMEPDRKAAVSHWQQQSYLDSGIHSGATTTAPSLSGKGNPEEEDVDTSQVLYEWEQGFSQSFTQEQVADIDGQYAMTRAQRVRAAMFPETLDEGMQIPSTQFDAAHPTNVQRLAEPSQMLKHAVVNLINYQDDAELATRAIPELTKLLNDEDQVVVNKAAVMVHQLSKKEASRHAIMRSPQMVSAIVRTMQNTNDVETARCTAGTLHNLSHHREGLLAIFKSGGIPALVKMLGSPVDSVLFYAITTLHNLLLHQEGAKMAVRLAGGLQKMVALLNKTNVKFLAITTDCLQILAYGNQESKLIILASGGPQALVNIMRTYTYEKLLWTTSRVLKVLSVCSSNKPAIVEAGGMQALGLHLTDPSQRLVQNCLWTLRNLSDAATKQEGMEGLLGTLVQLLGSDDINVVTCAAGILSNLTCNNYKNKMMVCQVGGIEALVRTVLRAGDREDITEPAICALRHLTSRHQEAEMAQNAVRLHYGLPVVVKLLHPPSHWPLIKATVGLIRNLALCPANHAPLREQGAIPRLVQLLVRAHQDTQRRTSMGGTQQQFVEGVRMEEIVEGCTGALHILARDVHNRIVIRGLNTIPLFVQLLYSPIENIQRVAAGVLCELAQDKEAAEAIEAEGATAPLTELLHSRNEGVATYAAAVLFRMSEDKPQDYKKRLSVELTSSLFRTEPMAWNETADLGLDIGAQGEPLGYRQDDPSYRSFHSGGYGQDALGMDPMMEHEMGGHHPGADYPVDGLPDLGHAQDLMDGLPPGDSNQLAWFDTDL

[2] = target: T2, Bcat-Halo (beta-catenin HaloTag fusion expressed in HEK293 cells) (UniProt P35222 1-781)
T2 sequence (looked up): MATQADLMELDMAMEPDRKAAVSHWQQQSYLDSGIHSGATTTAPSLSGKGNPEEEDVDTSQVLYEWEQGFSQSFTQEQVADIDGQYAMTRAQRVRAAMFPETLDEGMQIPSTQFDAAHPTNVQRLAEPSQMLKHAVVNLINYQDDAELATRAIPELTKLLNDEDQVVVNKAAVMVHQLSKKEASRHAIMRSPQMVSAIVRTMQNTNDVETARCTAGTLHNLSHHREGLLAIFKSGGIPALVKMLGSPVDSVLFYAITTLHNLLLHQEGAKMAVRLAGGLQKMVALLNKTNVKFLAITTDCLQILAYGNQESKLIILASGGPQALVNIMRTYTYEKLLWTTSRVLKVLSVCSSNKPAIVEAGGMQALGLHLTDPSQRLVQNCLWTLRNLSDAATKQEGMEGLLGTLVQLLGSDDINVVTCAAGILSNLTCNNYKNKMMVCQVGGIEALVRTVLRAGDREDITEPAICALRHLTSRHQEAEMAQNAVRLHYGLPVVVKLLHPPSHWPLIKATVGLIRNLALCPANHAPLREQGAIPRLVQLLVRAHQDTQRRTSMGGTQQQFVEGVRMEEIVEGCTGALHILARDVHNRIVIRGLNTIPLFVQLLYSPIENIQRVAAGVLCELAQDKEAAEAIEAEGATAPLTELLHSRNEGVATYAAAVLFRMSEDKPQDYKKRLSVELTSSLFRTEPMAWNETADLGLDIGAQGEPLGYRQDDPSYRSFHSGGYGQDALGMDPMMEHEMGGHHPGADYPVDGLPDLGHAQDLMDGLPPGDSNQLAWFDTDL

[3] = target: T3, Bcat-Halo (beta-catenin HaloTag construct transfected into HEK293 cells) (UniProt P35222 1-781)
T3 sequence (looked up): T2 sequence (looked up)

B1: I-1088 (peptide)
peptide: Ac-[αAllylPro]D[tBuAla][B5(3)]DEAAFT[S8][Phe(2-Cl)][Bta]Q-NH2
modifications: staple 1-4, 4-11; also: earlier eluting staple isomer
NanoBRET Abs IC50 [1]: 6.3 µM

B2: I-1363 (peptide)
peptide: Ac-[αAllylPro]D[tBuAla][B5(4)]DDAAF[Phe(2-CF3)][PyrS2][3Thi][Bta]Q-NH2
modifications: staple 1-4, 4-11
NanoBRET Abs IC50 [2]: 5.5 µM

B3: I-1364 (peptide)
peptide: Ac-[αAllylPro]D[tBuAla][B5(4)]DDAAF[Phe(3-CF3)][PyrS2][3Thi][Bta]Q-NH2
modifications: staple 1-4, 4-11
NanoBRET Abs IC50 [2]: 10.5 µM

B9: I-1353 (peptide)
peptide: [αAllylPro]D[tBuAla][B5(4)]DDAAFL[PyrS2″][Ala(cPent)][Bta]Q-NH2
modifications: staple 1-4, 4-11
NanoBRET Abs IC50 [2]: 8.8 µM

B11: I-1090 (peptide)
peptide: Ac-[αAllylPro]D[tBuAla][B5(3)]DDAAFT[S8][Phe(2-Cl)][Bta]T-NH2
modifications: staple 1-4, 4-11
NanoBRET Abs IC50 [1]: 6.1 µM

B12: I-1089 (peptide)
peptide: Ac-[αAllylPro]D[tBuAla][B5(3)]DEAAFT[S8][Phe(2-Cl)][Bta]Q-NH2
modifications: staple 1-4, 4-11; also: later eluting staple isomer
NanoBRET Abs IC50 [1]: 8.9 µM

B14: I-1079 (peptide)
peptide: Ac-[αAllylPro]D[tBuAla][B5(4)]DDAAFN[PyrS2″][Phe(2-Cl)][Bta]Q-NHEt
modifications: staple 1-4, 4-11
NanoBRET Abs IC50 [1]: 19.7 µM

B15: I-1352 (peptide)
peptide: [αAllylPro]D[tBuAla][B5(4)]DDAAFN[PyrS2″][Ala(cPent)][Bta]Q-NH2
modifications: staple 1-4, 4-11
NanoBRET Abs IC50 [2]: 19.5 µM

B16: I-1092 (peptide)
peptide: Ac-[αAllylPro]D[tBuAla][B5(3)]DDAAFT[S8][Phe(2-Cl)][Bta][dT]-NH2
modifications: staple 1-4, 4-11
NanoBRET Abs IC50 [1]: 7.7 µM

B17: I-1087 (peptide)
peptide: Ac-[αAllylPro]D[tBuAla][B5(3)]DDAAFT[S8][Phe(2-Cl)][Bta]Q-NH2
modifications: staple 1-4, 4-11; also: later eluting staple isomer
NanoBRET Abs IC50 [1]: 9.3 µM

B18: I-1082 (peptide)
peptide: Ac-[αAllylPro]D[tBuAla][B5(3)]DDAAFN[PyrS2″][Phe(2-Cl)][Bta][Thr(ol)]
modifications: staple 1-4, 4-11
NanoBRET Abs IC50 [1]: 14.1 µM

B19: I-1361 (peptide)
peptide: [αAllylPro]D[tBuAla][B5(4)]DDAAFL[PyrS2]F[Bta]Q-NH2
modifications: staple 1-4, 4-11
NanoBRET Abs IC50 [2]: > 20 µM

B20: I-1072 (peptide)
peptide: Ac-[αAllylPro]D[tBuAla][B5(4)]DDAAFL[PyrS2″]F[Bta]Q-NH2
modifications: staple 1-4, 4-11
NanoBRET Abs IC50 [1]: 10.5 µM

B22: I-1362 (peptide)
peptide: [αAllylPro]D[tBuAla][B5(4)]DDAAFL[PyrS2]F[Bta]Q-NH2
modifications: staple 1-4, 4-11
NanoBRET Abs IC50 [2]: 19.6 µM

B24: I-1083 (peptide)
peptide: Ac-[αAllylPro]D[tBuAla][B5(3)]DDAAFN[PyrS2″][Phe(2-Cl)][Bta][Phe(ol)]
modifications: staple 1-4, 4-11
NanoBRET Abs IC50 [1]: 18.8 µM

B25: I-1356 (peptide)
peptide: [αAllylPro]D[tBuAla][B5(4)]DDAAFS[PyrS2″]F[Bta]S-NH2
modifications: staple 1-4, 4-11; not fully specified; printed as PL3-Asp-Npg-B5-Asp-Asp-Ala-Ala-Phe-Ser-PyrS2-Phe-BztA-Ser-NH2
NanoBRET Abs IC50 [2]: > 20 µM

B26: I-1086 (peptide)
peptide: Ac-[αAllylPro]D[tBuAla][B5(3)]DDAAFT[S8][Phe(2-Cl)][Bta]Q-NH2
modifications: staple 1-4, 4-11; also: earlier eluting staple isomer
NanoBRET Abs IC50 [1]: 10.1 µM

B27: I-1091 (peptide)
peptide: Ac-[αAllylPro]D[tBuAla][B5(3)]DEAAFT[S8][Phe(2-Cl)][Bta]T-NH2
modifications: staple 1-4, 4-11
NanoBRET Abs IC50 [1]: 11.4 µM

B28: I-1357 (peptide)
peptide: [αAllylPro]D[tBuAla][B5(4)]DDAAFS[PyrS2″]F[Bta]S-NH2
modifications: staple 1-4, 4-11
NanoBRET Abs IC50 [2]: 33.6 µM

Results, then the binder that gave them:

NanoBRET Abs IC50 [2]: 9.7 µM
B4: I-1365 (peptide)
peptide: Ac-[αAllylPro]D[tBuAla][B5(4)]DDAAF[Phe(4-CF3)][PyrS2][3Thi][Bta]Q-NH2
modifications: staple 1-4, 4-11

NanoBRET Abs IC50 [3]: > 20 µM
B5: I-1472 (peptide)
peptide: Ac-[αAllylPro]DK([PEG2′-Me3AdamantC])[B5(4)]DDAAFL[PyrS2][3Thi][Bta]Q-NH2
modifications: staple 1-4, 4-11

NanoBRET Abs IC50 [3]: > 20 µM
B6: I-1471 (peptide)
peptide: Ac-[αAllylPro]DK(Me3AdamantC)[B5(4)]DDAAFL[PyrS2][3Thi][Bta]Q-NH2
modifications: staple 1-4, 4-11

NanoBRET Abs IC50 [2]: 14.2 µM
B7: I-1368 (peptide)
peptide: Ac-[αAllylPro]D[tBuAla][B5(4)]DDAAF[Phe(3-CF3)][PyrS2][Phe(2-Cl)][Bta]Q-NH2
modifications: staple 1-4, 4-11

NanoBRET Abs IC50 [3]: > 20 µM
B8: I-1470 (peptide)
peptide: Ac-[αAllylPro]DK([PEG2′-Lithocholoyl])[B5(4)]DDAAFL[PyrS2][3Thi][Bta]Q-NH2
modifications: staple 1-4, 4-11

NanoBRET Abs IC50 [3]: 9.6 µM
B10: I-1467 (peptide)
peptide: Ac-[αAllylPro]D[tBuAla][B5(4)]DD[(CH2NMe2)4SEF]AFL[PyrS2]F[Bta]Q
modifications: staple 1-4, 4-11

NanoBRET Abs IC50 [2]: 9.9 µM
B13: I-1369 (peptide)
peptide: Ac-[αAllylPro]D[tBuAla][B5(4)]DDAAF[Phe(4-CF3)][PyrS2][Phe(2-Cl)][Bta]Q-NH2
modifications: staple 1-4, 4-11

NanoBRET Abs IC50 [2]: 7.5 µM
B21: I-1366 (peptide)
peptide: Ac-[αAllylPro]D[tBuAla][B5(4)]DDAAFF[PyrS2][Phe(2-Cl)][Bta]Q-NH2
modifications: staple 1-4, 4-11

NanoBRET Abs IC50 [3]: > 20 µM
B23: I-1476 (peptide)
peptide: Ac-[αAllylPro]D[tBuAla][B5(4)]DDAK([PEG2′-Me3AdamantC])FL[PyrS2″][3Thi][Bta]Q-NH2
modifications: staple 1-4, 4-11

NanoBRET Abs IC50 [2]: 7.8 µM
B29: I-1367 (peptide)
peptide: Ac-[αAllylPro]D[tBuAla][B5(4)]DDAAF[Phe(2-CF3)][PyrS2][Phe(2-Cl)][Bta]Q-NH2
modifications: staple 1-4, 4-11

NanoBRET Abs IC50 [3]: > 20 µM
B30: I-1474 (peptide)
peptide: Ac-[αAllylPro]D[tBuAla][B5(4)]DDAK([PEG2′-Lithocholoyl])FL[PyrS2″][3Thi][Bta]Q-NH2
modifications: staple 1-4, 4-11
